The record followed here is article doi:10.1101/2020.05.09.085852 (bioRxiv, 2020).

This data set deals with the molecule itself. As to the kind of experiment: crystal structure.

B1: YukC413.strep (domain or fragment, B. subtilis 168, UniProt P71070 1-413, looked up)
chain: MSGEQKSYLENQLEAVAEKTDAGYTFTFQREKIKLLDGLEANVIKDINPFFHKEIDVTDDEVIITIQPPSSYKAFRFMKAKDKKSKWQFAYQLVQAVQQHNLSRLNLIVAPENIVFDKGLTPYFLHYGVKESIPPYERDEERVWQELKAAAALAVDGAFAFEDYLKFNETLTFSAEAKAILDAESYDDLLELIQTHIDELEAKAKTYIHIPRKKWNIQRYIGLGLIVLLVPALIYSMYALFFAQPKHQAIVDSNRAFLNKQYSEVISTLSKYDAESLPESVQYQLATSYVEVENLGSAKTKNIENNLVTLQSDPQHFLYWIDYGRGEYKEAISIGRKLEYNDYIYFALAKYKQQLLSEDTNDEDIQKELDSVNSELEKAQKERQENKQSNSETSLVDTSEEQTQTDEEKQAEE
The stoichiometry N is the number of molecules, sites or subunits per partner or assembly. Regarding B1, the “stoichiometry N” value was determined as 2.
